Where two headings read alike, the source gives them in different places.

The target in experiment [1] is T1, CD3E on the surface of Jurkat-NFAT-Luc cells (UniProt P07766 23-207). Kind of experiment: cell-based or functional assay.
The target of experiment [2] is T1, CD3E on the surface of Jurkat-NFAT-Luc …. Kind of experiment: cell-based or functional assay. The source holds these as a separate data set.
The target is the same in experiment [3]. The experiment can be described thus: cell-based or functional assay. This is another data set of the same source.
Experiment [4] shares this target. Kind of experiment: cell-based or functional assay. This is another data set of the same source.
Experiment [5] shares this target. Kind of experiment: cell-based or functional assay. The source holds these as a separate data set.
Experiment [6] has as its target T2, human GPRC5D (human, UniProt Q9NZD1 1-345).
T2 construct: whole, on cells; also called huGPRC5D; G protein-coupled receptor family C group 5 member D
Kind of experiment: flow cytometry on AMO-1 cells. The method, then:
(§1) The affinity of the anti-GPRC5D antibody was detected by flow cytometry. Antibodies at various concentrations were co-incubated with cells expressing human GPRC5D, including GS-CHO cells overexpressing human GPRC5D (huGPRC5D GS-CHO), multiple myeloma cells MM1.R, H929 and AMO-1, for 30 min. A fluorescently-labeled secondary antibody (APC-mouse anti-human IgG Fc antibody, Biolegend, Cat #409306) was then added, the cell fluorescence intensity was detected using a Live/Dead yellow dead cell stain (Thermo Fisher, Cat #L34967) by flow cytometry, a curve was fitted using GraphPad Prism 8.0, and the EC50 value was calculated to show the binding affinity of the antibody to human GPRC5D.
(§2) Among the antibodies detected, HB15H1G1 (the heavy chain variable region of SEQ ID NO: 25, and the light chain variable region of SEQ ID NO: 26) was a fully human antibody, and ch5E12C4 (the heavy chain variable region of SEQ ID NO: 98, and the light chain variable region of SEQ ID NO: 99), ch11B7 (the heavy chain variable region of SEQ ID NO: 100, and the light chain variable region of SEQ ID NO: 101) and ch7F5D4 antibodies (the heavy chain variable region of SEQ ID NO: 27, and the light chain variable region of SEQ ID NO: 28) were chimeric antibodies.

In experiment [7] the target is T2, human GPRC5D. The experiment can be described thus: flow cytometry on MM1.R cells. The method, then:
as §1, §2

Experiment [8] deals with T2, human GPRC5D. The experiment can be described thus: flow cytometry on H929 cells. The method, then:
as §1, §2
A general note: A flow cytometer gives signals particle by particle.

Experiment [9] addresses T2, human GPRC5D. Kind of experiment: flow cytometry on huGPRC5D-GS-CHO cells. The method, then: as §1, §2

T1 sequence (P07766 23-207): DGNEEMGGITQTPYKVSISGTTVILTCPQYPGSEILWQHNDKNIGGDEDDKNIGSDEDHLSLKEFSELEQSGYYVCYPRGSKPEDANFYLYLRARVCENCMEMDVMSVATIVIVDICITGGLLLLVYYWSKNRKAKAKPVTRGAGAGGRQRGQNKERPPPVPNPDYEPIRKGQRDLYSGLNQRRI
T2 sequence (Q9NZD1 whole entry): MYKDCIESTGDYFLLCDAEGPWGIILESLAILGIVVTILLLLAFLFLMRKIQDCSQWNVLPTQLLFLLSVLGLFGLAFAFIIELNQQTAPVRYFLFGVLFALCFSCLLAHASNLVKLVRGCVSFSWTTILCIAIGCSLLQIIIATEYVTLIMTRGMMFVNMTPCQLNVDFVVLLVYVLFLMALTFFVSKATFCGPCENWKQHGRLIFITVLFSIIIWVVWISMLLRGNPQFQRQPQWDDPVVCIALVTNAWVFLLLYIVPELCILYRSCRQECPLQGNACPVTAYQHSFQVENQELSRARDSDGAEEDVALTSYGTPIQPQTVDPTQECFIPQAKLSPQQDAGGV

B1: TS-F2-1 (HB15H1G1/SP34.24/38456) (antibody, human IgG1, kappa, lambda, L234A L235A)
heavy 1: not shown
light 1: not shown
heavy 2: not shown
light 2: QAVVTQEPSLTVSPGGTVTLTCRSSTGAVTTSNYANWVQQKPGQAPRGLIGGTNKRAPGVPARFSGSLLGDKAALTLLGAQPEDEAEYYCALWYSNLWVFGQGTKLTVLGQPKAAPSVTLFPPSSEELQANKATLVCLISDFYPGAVTVAWKADSSPVKAGVETTTPSKQSNNKYAASSYLSLTPEQWKSHRSYSCQVTHEGSTVEKTVAPTECS
In the case of B1, the “EC50 of Jurkat-NFAT-Luc luciferase activation; tumor cells L363” value (“EC50 … tumor cells L363” below) in experiment [1] amounted to 0.24 nM.

B2: TS-F2-2 (38456/SP34.24/HB15H1G1) (antibody, human IgG1, kappa, lambda, L234A L235A)
heavy 1: not shown
light 1: not shown
heavy 2: not shown
light 2: QAVVTQEPSLTVSPGGTVTLTCRSSTGAVTTSNYANWVQQKPGQAPRGLIGGTNKRAPGVPARFSGSLLGDKAALTLLGAQPEDEAEYYCALWYSNLWVFGQGTKLTVLGQPKAAPSVTLFPPSSEELQANKATLVCLISDFYPGAVTVAWKADSSPVKAGVETTTPSKQSNNKYAASSYLSLTPEQWKSHRSYSCQVTHEGSTVEKTVAPTECS
Regarding B2, in experiment [1], the “EC50 of Jurkat-NFAT-Luc luciferase activation; tumor cells H929” value (shortened to “EC50 … tumor cells H929”) is 0.01 nM and the “EC50 … tumor cells L363” value was 0.13 nM.

B3: BCMA×CD3 bispecific antibody 46758 (bispecific antibody, human IgG1, kappa, L234A L235A)
chain 1: not shown
chain 2: not shown
chain 3: DIVMTQSPDSLAVSLGERATINCKSSQSLLNARTGKNYLAWYQQKPGQPPKLLIYWASTRESGVPDRFSGSGSGTDFTLTISSLQAEDVAVYYCKQSYSRRTFGCGTKVEIKGGGGSGGGGSGGGGSGGGGSQVQLVQSGAEVKKPGASVKVSCKASGFNIKDYYMHWVRQAPGQCLEWMGWIDLENANTVYNAKFQGRVTITRDTSASTAYMELSSLRSEDTAVYYCARDAYGRYFYDVWGQGTLVTVSSGSEPKSSDKTHTCPPCPAPEAAGGPSVFLFPPKPKDTLMISRTPEVTCVVVDVSHEDPEVKFNWYVDGVEVHNAKTKPREEQYNSTYRVVSVLTVLHQDWLNGKEYKCKVSNKALPAPIEKTISKAKGQPREPQVCTLPPSRDELTKNQVSLSCAVKGFYPSDIAVEWESNGQPENNYKTTPPVLDSDGSFFLVSKLTVDKSRWQQGNVFSCSVMHEALHNHYTQKSLSLSPGK
As to B3, in [2], the “EC50 of Jurkat-NFAT-Luc luciferase activation; tumor cells 8226” value is 0.0798 nM, the “EC50 … tumor cells H929” value amounted to 0.0835 nM, the “EC50 … tumor cells L363” value worked out at 0.0901 nM and the “EC50 of Jurkat-NFAT-Luc luciferase activation; tumor cells U266” value (from here on “EC50 … tumor cells U266”) was found to be 0.603 nM. In experiment [3], the “EC50 of Jurkat-NFAT-Luc luciferase activation; tumor cells ARD” value came out at 0.133 nM and the “EC50 of Jurkat-NFAT-Luc luciferase activation; tumor cells MM.1S” value was 0.159 nM. In addition, in [4], the “EC50 of Jurkat-NFAT-Luc luciferase activation; target cells huGPRC5D-GS-CHO” value turned out to be 0.0059 nM, the “EC50 … tumor cells H929” value is 0.344 nM, the “EC50 … tumor cells L363” value was found to be 0.192 nM and the “EC50 … tumor cells U266” value came to 0.0311 nM. Also, in experiment [1], the “EC50 … tumor cells H929” value came out at 0.07 nM and the “EC50 … tumor cells L363” value was determined as 0.43 nM. Also, in [5], the “EC50 of Jurkat-NFAT-Luc luciferase activation; tumor cells 8226” value was found to be 0.0798 nM, the “EC50 … tumor cells H929” value came out at 0.0835 nM, the “EC50 … tumor cells L363” value stood at 0.0901 nM and the “EC50 … tumor cells U266” value stood at 0.603 nM.

B4: ch5E12C4 (antibody, V domains shown)
VH: EVQLQQSGPELVKPGASVKMSCKASGYTFIGYVMHWVKRKPGQGLEWIGYINPYNDVSQHNGKFKGKATLTSDKSSSTAYMELSSLTSEDSAVYYCAREGRLGLRVLAYWGQGTLVTVSA
VL: not shown
A word on the EC50: it is the midpoint of the concentration-response curve. Lower therefore signals greater potency. In the case of B4, the EC50 is 100 nM in [6], 3.7 nM in experiment [7], 21.7 nM in [8] and 9.18 nM in [9].

B5: ch11B7 (antibody, V domains shown)
VH: EVQLQQSVAELARPGASVKMSCKASGYTFTTYTMHWVKQRPGQGLEWIGFIIPSSGYTSYNQNFKDKVTLTADKSSSTAYMQLSSLTSEDSAVYFCTGGQARAYYPLDYWGQGTSVTVSS
VL: DIVMTQSPAILSVSPGERVSFSCRASQSIGTTIHWYQQRSNGSPRLLIKYASESISGIPSRFSGSGSGTYFTLSINSVESEDIADYFCQQSYNWPRTFGGGTKLEIK
On to B5, for which the concentration for a half-maximal effect (EC50) in experiment [8] amounted to 5.99 nM; in [9] it was 1.14 nM.

B6: ch7F5D4 (antibody, V domains shown)
VH: DVQLQESGPGLVKPSQSLSLTCTVTGYSITSDYAWNWIRQFPGNKLEWMVYIDYTGRTSYNPSLKSRISLTRDTSKNQFFLQFNSVTTEDTATYYCARGNYGRYYYVMDYWGQGTSVTVSS
VL: DIQMTQTTSSLSASLGDRVTISCRASQDIRNYLNWYQQRPDGTIKLLIYYTSRLHSGVPSRFSGSGSGTDYSLTISNLDQEDFATYFCQQGNMLPWTFGGGTSLEIK
Take B6: the EC50 worked out at 6.3 nM in experiment [6], 0.5 nM in experiment [7], 7.3 nM in experiment [8] and 2.59 nM in experiment [9].

B7: GPRC5D × CD3 (HB15H/hzsp34.24) (bispecific antibody, V domains shown)
VH 1: QVQLVESGGGVVQPGRSLRLSCTASGFTFSSYGLHWVRQAPGKGLEWVAVIWYDGSNKYYIDSVKGRFIISRDNSKNTLYLQMNSLRAEDTAVYYCARFTMFRGITLDYWGQGTLVTVSS
VL 1: DIQMTQSPSSLSASVGDRVTITCRASQRINSYLNWYQQKPGKAPKLLIYAASSLQSGVPSRFSGSGSGTDFTLTISNLQPEDFATYYCQQSYSTPLTFGGGTKVEIK
VH 2: EVQLVESGGGLVQPGGSLKLSCAASGFTFNTYAMNWVRQASGKGLEWVGRIRSKYNNYATYYADSVKDRFTISRDDSKSTLYLQMNSLKTEDTAVYYCARHGNFGQSYVSWFAYWGQGTTVTVSS
VL 2: QAVVTQEPSLTVSPGGTVTLTCRSSTGAVTTSNYANWVQQKPGQAPRGLIGGTNKRAPGVPARFSGSLLGDKAALTLLGAQPEDEAEYYCALWYSNLWVFGQGTKLTVL
As for B7, in experiment [1], the “EC50 … tumor cells H929” value amounted to 0.01 nM and the “EC50 … tumor cells L363” value stood at 0.28 nM.

B8: HB15H1G1 (antibody, V domains shown)
VH: QVQLVESGGGVVQPGRSLRLSCTASGFTFSSYGLHWVRQAPGKGLEWVAVIWYDGSNKYYIDSVKGRFIISRDNSKNTLYLQMNSLRAEDTAVYYCARFTMFRGITLDYWGQGTLVTVSS
VL: DIQMTQSPSSLSASVGDRVTITCRASQRINSYLNWYQQKPGKAPKLLIYAASSLQSGVPSRFSGSGSGTDFTLTISNLQPEDFATYYCQQSYSTPLTFGGGTKVEIK
notes: Fully human anti-GPRC5D antibody; also called HB15H1B1
B8: the EC50 worked out at 9.4 nM in experiment [6], 0.7 nM in experiment [7], 3.7 nM in experiment [8] and 1.89 nM in [9].

Values taken from patent US20250074996A1 (Innovent, published 2025).
